Data: paper PMC9704693

Target: extracellular fragment of lymphotoxin-beta receptor (LTβR) (629-LR-100, R&D Systems) (UniProt P36941)
Experiment: SPR

“Ixodes persulcatus salivary protein (IpSAP), recombinant (natural protein)” gave a Kd of 124 nM.
